Source: patent US20080118504A1 (University of California, published 2008)

Tests used:
[1] = target: T1, TLR4 containing N-terminal HA-tag, stably transfected in CHO (EL1) cells (UniProt O00206 24-839, limits assumed); assay: FACS with anti-His and anti-HA on TLR4 transfected EL-1 (CHO) cells, receptor numbers from a microbead standard curve
T1 construct: whole, on cells; also called membrane TLR4; TLR4 transfected EL-1 cells; not shown: N-terminal HA-tag
Experimental: (§1) LPS activation increased with increasing MD-2 levels on the cell surface. TLR4 transfected EL-1 cells (a CHO cell line stably transfected with NF-κB/CD25 reporter plasmid) were incubated with various amount of soluble MD-2 for 20 min. The amount of soluble MD-2 that bound to TLR4 transfected cells as well as the TLR4 expression level were assayed by FACS analysis using antibody to His-tag and HA-tag, respectively. The MD-2 and TLR4 receptor numbers were calculated by converting mean channel number (MCN) of fluorescence intensity using the standard curve generated with Simply Cellular Microbeads. The cells were also activated with 100 ng/ml LPS and NF-κB activation assayed by FACS analysis of surface CD25 expression.
(§2) Various concentrations of sMD-2, plotted on the x-axis, was added to CHO (EL1) cells stably transfected with TLR4. The amount of TLR4 and MD-2 on the cell surface was analyzed by FACS using anti-HA tag and anti-His tag antibody, respectively. The receptor numbers plotted on the left Y-axis were calculated from mean channel number (MCN) and the standard curves generated by simply cellular microbeads. The cells were also activated with 100 ng/ml of LPS.

[2] = target: T1, TLR4 containing N-terminal HA-tag, …; assay: FACS with anti-His and anti-HA on TLR4 transfected EL-1 (CHO) cells, receptor numbers from a microbead standard curve; 0.5 nM sMD-2, 20 min
Experimental: as §1, §2

[3] = target: T1, TLR4 containing N-terminal HA-tag, …; assay: FACS with anti-His tag of purified sMD-2 on TLR4 transfected EL1 (CHO) cells
Experimental: To determine sMD-2 mutants binding to TLR4, the purified proteins were added to TLR4 transfected EL1 cells, washed off excess protein after 15 min or overnight incubation, stained with anti-His tag antibody and analyzed by FACS. FIG. 10 illustrates data showing LPS activation of sMD-2. TLR4 transfected CHO cells harboring CD25 reporter plasmids were activated with 100 ng/ml LPS in the absence and presence of 5 ug/ml of sMD-2 and the NF-κB activation was measured by FACS analysis of CD25 surface expression (MCN) using anti-CD25-PE. […] None of mutants with mostly oligomers remained in association to TLR4 cells after 16 hr. The unglycosylated MD-2 bound normally to TLR4 cells after 15 min but the binding was reduced after 16 hr.

T1 sequence (O00206 24-839 limits assumed): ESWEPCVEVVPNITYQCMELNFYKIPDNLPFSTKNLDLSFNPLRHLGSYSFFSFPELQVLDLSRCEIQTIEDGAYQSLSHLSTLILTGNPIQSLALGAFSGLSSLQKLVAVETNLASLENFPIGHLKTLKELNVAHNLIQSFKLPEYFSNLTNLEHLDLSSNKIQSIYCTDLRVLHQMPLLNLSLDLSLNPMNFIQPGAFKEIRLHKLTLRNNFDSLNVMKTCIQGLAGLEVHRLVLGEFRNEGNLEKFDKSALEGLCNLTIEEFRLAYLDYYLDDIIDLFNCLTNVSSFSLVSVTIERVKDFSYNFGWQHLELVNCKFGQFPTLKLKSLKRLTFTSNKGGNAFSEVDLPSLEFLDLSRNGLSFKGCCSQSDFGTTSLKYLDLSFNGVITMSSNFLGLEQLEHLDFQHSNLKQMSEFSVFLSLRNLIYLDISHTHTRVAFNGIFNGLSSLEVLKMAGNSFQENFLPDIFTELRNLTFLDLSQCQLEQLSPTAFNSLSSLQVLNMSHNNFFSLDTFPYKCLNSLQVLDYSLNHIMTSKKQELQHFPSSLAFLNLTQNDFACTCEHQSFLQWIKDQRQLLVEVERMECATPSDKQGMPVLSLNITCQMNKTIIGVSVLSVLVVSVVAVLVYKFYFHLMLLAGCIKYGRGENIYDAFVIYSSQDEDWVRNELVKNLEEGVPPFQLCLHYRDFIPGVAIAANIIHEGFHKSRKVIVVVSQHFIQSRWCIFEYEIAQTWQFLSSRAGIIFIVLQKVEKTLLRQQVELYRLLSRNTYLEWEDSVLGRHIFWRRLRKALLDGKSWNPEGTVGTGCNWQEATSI

| Binder | calculated ratio of MD-2 per TLR4 at maximal LPS activation [1] | calculated ratio of surface MD-2 per TLR4 [2] | binding result [3] |
| --- | --- | --- | --- |
| soluble MD-2 wild type (human MD-2 with C-terminal His-tag, from insect cells) (other, Expressed with the gp64 signal peptide in place of its own; The purified protein is a mixture of monomer and disulfide-linked oligomers; also called sMD-2; sMD-2 WT; not shown: C-terminal V5/His tag of the vector (pBlueBac4.5/V5-His or pBac11)) EAQKQYWVCNSSDASISYTYCDKMQYPISINVNPCIELKGSKGLLHIFYIPRRDLKQLYFNLYITVNTMNLPKRKEVICRGSDDDYSFCRALKGETVNTTISFSFKGIKFSKGKYKCVVEAISGSPEEMLFCLEFVILHQPNSN | ~5 MD-2 per TLR4 | 0.5 MD-2 per TLR4 |  |
| soluble MD-2 alanine replacement mutant 127-131 (other, Expressed as a monomer; also called mutant SKGKY; not shown: C-terminal V5/His tag of the vector) EAQKQYWVCNSSDASISYTYCDKMQYPISINVNPCIELKGSKGLLHIFYIPRRDLKQLYFNLYITVNTMNLPKRKEVICRGSDDDYSFCRALKGETVNTTISFSFKGIKFAAAAAKCVVEAISGSPEEMLFCLEFVILHQPNSN |  |  | no binding (tested: 1 or 5 µg/ml) |
